Source: patent publication US20250302875A1 (AVENCELL EUROPE, published 2025)
Changes are numbered by the printed parent chain. Names may count otherwise.

B1: TM-mu33A1-scFv (scFv)
scFv: EFQVQLQQPGAELVKPGASVKLSCKASGYTFTSHWIHWVKERPGRGLEWIGRIEPNSGGTLYNEKFKTKATLTVDKPSSTAYMQINSLTSEDFAVYYCARWREFDFFDYWGQGTTLTVSSGGGGSGGGGSGGGGSDIVLTQSPATLSVTPGDSVSLSCRASQSISNNLHWYQQKSHESPRLLIKYASQSISGIPSRFSGSGSGTDFTLSISSVETEDFGMYFCQQSNRWPYTFGGGTKLEIKAAAKPLPEVTDEYARGGPGGGGSHHHHHHHH
notes: also called TM based on the parental murine clone 33A1; mu33A1-based TM
B2: TM-IL13-E11Y-G30Y (ligand, not shown: small tags and cut ends)
chain (part 1 of 2): GPVPPSTALRYLIEELVNITQNQKAPLCNYSMVWSINLTAGMYCAALESLINVSGCSAIEKTQRMLSGFCPHKVSAGQFSSLHVRDTKIEVAQFVKDLLLHLKKLFREGRFN
chain (part 2 of 2): KPLPEVTDEYHHHHHHHH
B3: TM-IL13-E11Y-M32A (ligand, not shown: small tags and cut ends)
chain (part 1 of 2): B2 chain (part 1 of 2) with Y30G, M32A
chain (part 2 of 2): KPLPEVTDEYHHHHHHHH

Columns and labels:
[1] = molecular target: T1, IL13Rα2 on cells (recombinant K562-IL13Rα2 cell line, U251-MG cells, PC3 cells) (human, UniProt Q14627 27-380); assay: cell-based or functional assay
T1 sequence (looked up): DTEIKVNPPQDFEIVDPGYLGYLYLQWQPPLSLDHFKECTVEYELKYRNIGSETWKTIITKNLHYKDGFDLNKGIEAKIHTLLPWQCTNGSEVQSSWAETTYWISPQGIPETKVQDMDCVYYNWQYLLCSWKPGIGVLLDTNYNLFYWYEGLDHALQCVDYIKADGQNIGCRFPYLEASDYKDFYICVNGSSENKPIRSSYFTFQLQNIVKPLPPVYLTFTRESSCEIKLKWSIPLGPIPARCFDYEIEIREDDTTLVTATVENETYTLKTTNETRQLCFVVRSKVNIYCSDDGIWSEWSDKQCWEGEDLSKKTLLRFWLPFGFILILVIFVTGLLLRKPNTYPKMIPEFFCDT

[2] = molecular target: T1, IL13Rα2 on cells (recombinant …); assay: cell-based or functional assay; remark: listed apart in the source
[3] = molecular target: T2, soluble recombinant IL13Rα2 ectodomain (human, UniProt Q14627 27-343); assay: SPR, Biacore X100, two-state reaction model
T2 construct: extracellular domain
T2 sequence (looked up): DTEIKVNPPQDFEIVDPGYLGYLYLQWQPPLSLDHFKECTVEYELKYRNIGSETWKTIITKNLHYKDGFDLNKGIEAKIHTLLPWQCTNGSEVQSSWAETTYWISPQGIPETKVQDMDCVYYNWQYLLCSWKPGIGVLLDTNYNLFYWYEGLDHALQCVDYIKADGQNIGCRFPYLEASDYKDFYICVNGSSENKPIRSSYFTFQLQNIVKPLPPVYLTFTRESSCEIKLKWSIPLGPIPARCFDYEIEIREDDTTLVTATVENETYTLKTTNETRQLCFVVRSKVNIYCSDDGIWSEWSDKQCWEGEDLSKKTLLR
Description: (§1) Data obtained by surface plasmon resonance were fitted with a “two-state reaction” model using the Biacore X100 Evaluation Software (V2.0.1). The following parameters were calculated from this model: association rate (kₐ), dissociation rate (kd) and the dissociation constant at equilibrium (KD).

[4] = molecular target: T1, IL13Rα2 on cells (recombinant …); assay: flow cytometry, two-step immunostaining, PC3 cells
[5] = molecular target: T2, soluble recombinant IL13Rα2 ectodomain; assay: SPR, Biacore X100, two-state reaction model, Ka1
Description: as §1

[6] = molecular target: T2, soluble recombinant IL13Rα2 ectodomain; assay: SPR, Biacore X100, two-state reaction model, Kd1
Description: as §1

[7] = molecular target: T1, IL13Rα2 on cells (recombinant …); assay: flow cytometry cellular binding, U251-MG cells, mean
Description: (§2) The data were fitted using a four-parameter model with a variable slope for sigmoidal curves. The EC50 value obtained from this model can be interpreted as a representative value of the TM affinity for the cells overexpressing the target receptor.
The mean values were calculated from the results obtained from two independent experiments with three technical replicates each (see Tab. 1).

[8] = molecular target: T1, IL13Rα2 on cells (recombinant …); assay: flow cytometry, two-step immunostaining, K562-IL13Rα2 cells
Description: (§3) Cellular binding of IL13-based targeting modules (TM) was tested on recombinant K562-IL13Rα2 cell line (FIG. 2A), recombinant K562-IL13Rα1 cell line (FIG. 2B) and U251-MG cells (FIG. 2C) (derived from a malignant glioblastoma tumor by explant technique). The affinity of TMs was analyzed by FACS in a two-step immunostaining. The TMs were titrated on an AML cell line with recombinant overexpression of IL13Rα2 or IL13Rα1 or U251-MG cells, respectively, and then detected by a mouse anti-His-tag antibody conjugated to phycoerythrin. A dose-response curve was obtained when the geometric mean fluorescence (MFI) was plotted against the TM concentration.
as §2

[9] = molecular target: T3, IL13Rα1 on recombinant K562-IL13Rα1 cell line (UniProt P78552 22-427); assay: flow cytometry cellular binding assay on recombinant K562-IL13Rα1 cells, two-step immunostaining, MFI against TM concentration
T3 construct: whole, on cells
T3 sequence (looked up): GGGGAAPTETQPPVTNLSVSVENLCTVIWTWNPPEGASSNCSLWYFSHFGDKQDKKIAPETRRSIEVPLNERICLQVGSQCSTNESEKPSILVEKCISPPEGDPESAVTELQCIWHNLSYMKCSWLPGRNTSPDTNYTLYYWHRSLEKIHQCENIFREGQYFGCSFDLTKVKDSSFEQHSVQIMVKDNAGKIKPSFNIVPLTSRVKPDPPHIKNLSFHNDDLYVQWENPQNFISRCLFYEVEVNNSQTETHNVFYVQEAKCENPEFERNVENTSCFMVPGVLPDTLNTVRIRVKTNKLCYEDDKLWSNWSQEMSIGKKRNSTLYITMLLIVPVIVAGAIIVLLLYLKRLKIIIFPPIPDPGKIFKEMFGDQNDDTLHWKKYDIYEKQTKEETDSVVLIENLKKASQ
Description: as §3, §2

[10] = molecular target: T2, soluble recombinant IL13Rα2 ectodomain; assay: SPR, Biacore X100, 1:1 binding model
Description: Data obtained by surface plasmon resonance were fitted with a “1:1 binding” model using the Biacore X100 Evaluation Software (V2.0.1). The following parameters were calculated from this model: association rate (kₐ), dissociation rate (kd) and the dissociation constant at equilibrium (KD).

[11] = molecular target: T1, IL13Rα2 on cells (recombinant …); assay: flow cytometry cellular binding assay on recombinant K562-IL13Rα2 cells, two-step immunostaining (anti-His-tag-PE), absolute MFI against TM concentration, four-parameter fit
Description: as §3
(§4) The data for the cellular binding of IL13-based TMs on the IL13Rα2-expressing AML cell line and U251-MG cells were fitted using a four-parameter model with a variable slope for sigmoidal curves.

[12] = molecular target: T3, IL13Rα1 on recombinant K562-IL13Rα1 …; assay: flow cytometry cellular binding assay on recombinant K562-IL13Rα1 cells, two-step immunostaining (anti-His-tag-PE), absolute MFI against TM concentration
Description: as §3

[13] = molecular target: T1, IL13Rα2 on cells (recombinant …); assay: flow cytometry cellular binding assay on U251-MG cells, two-step immunostaining (anti-His-tag-PE), absolute MFI against TM concentration, four-parameter fit
Description: as §3, §4

Row | Binder | EC50 of lysis of K562-IL13Rα2 cells by switchable CAR T cells [1] | EC50 of lysis of PC3 cells by switchable CAR T cells [1] | EC50 (M), mean, lysis of U251-MG cells by UniCAR T cells [2] | Kd [3] | EC50 [4] | kon [5] | koff [6] | EC50 [7] | EC50 [8] | binding result [9] | Kd [10] | koff [10] | kon [10] | EC50 [11] | binding result [12] | EC50 [13]
1 | B1 | 0.0068 nM | 0.048 nM | 2.8e-11 M | 1.39 nM | 1 nM | 871000 M⁻¹ s⁻¹ | 0.0024 s⁻¹ | 2.5 nM | 1.68 nM | no binding (tested: 1x10^-6 M) | – | – | – | – | – | –
2 | B2 | – | – | – | – | – | – | – | – | – | – | 30 nM | 0.00049 s⁻¹ | 26000 M⁻¹ s⁻¹ | 26 nM | – | –
3 | B3 | – | – | – | – | – | – | – | – | – | – | 21 nM | 0.00073 s⁻¹ | 35000 M⁻¹ s⁻¹ | 14.1 nM | no binding (tested: about 5x10^-6 M) | 1.08 nM
